How the values were obtained:
[1] = target: pathological hyperphosphorylated tau from human Alzheimer's disease brain (AD-P3 antigens) (human) (UniProt P10636); assay: fluid phase inhibition of AD-P3 tau capture on MSD plates coated with mouse C10-2; two-site fit
[2] = target: pathological hyperphosphorylated tau from human Alzheimer's disease brain (AD-P3 antigens) (human) (UniProt P10636); assay: fluid phase inhibition of AD-P3 tau capture on MSD plates coated with mouse C10-2; two-site fit, low affinity part
[3] = target: pathological hyperphosphorylated tau from human Alzheimer's disease brain (AD-P3 antigens) (human) (UniProt P10636); assay: fluid phase inhibition of AD-P3 tau capture on MSD plates coated with mouse C10-2; two-site fit, high affinity part
[4] = target: pathological hyperphosphorylated tau from human Alzheimer's disease brain (AD-P3 antigens) (human) (UniProt P10636); assay: fluid phase inhibition of Ptau antigen capture in C10-2 coated plate
[5] = target: hyperphosphorylated human tau P301L (4R0N) from rTg4510 mouse brain (64 and 70 kDa species) (human) (UniProt P10636); assay: binding to P301L human mutant tau isolated from 10 month old Tg4510 mice
hyperphosphorylated human tau P301L (4R0N) from rTg4510 mouse brain (64 and 70 kDa species) (human), sequence (P10636 other isoform, or with tags, fused parts or gaps P301L P301L): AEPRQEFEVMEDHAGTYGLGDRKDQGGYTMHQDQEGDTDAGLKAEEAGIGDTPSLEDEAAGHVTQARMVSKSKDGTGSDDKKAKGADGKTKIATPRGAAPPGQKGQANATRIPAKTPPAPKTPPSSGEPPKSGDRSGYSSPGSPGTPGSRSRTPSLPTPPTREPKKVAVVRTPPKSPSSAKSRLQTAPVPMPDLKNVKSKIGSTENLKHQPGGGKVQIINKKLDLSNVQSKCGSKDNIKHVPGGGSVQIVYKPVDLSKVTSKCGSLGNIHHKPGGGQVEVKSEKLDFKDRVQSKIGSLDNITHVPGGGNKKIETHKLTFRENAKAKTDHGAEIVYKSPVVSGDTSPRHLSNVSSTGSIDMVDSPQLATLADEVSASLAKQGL

pathological hyperphosphorylated tau from human Alzheimer's disease brain (AD-P3 antigens) (human), sequence (P10636 other isoform, or with tags, fused parts or gaps limits assumed): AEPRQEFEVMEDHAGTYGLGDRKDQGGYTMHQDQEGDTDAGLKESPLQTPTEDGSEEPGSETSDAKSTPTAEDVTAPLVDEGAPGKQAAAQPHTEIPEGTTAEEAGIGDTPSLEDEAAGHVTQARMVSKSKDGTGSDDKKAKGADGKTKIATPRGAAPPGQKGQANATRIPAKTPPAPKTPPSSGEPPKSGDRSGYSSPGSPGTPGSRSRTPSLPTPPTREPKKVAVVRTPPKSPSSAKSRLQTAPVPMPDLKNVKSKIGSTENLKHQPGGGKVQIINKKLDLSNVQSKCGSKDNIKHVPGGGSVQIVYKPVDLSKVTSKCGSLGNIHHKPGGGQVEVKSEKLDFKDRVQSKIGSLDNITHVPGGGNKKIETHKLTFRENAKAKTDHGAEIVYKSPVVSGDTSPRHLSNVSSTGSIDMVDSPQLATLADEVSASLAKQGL
IPN002 (antibody), sequence (VH): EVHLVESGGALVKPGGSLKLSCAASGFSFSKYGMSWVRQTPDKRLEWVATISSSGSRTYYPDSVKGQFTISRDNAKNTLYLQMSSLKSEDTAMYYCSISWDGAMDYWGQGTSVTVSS
IPN002 (antibody), sequence (VL): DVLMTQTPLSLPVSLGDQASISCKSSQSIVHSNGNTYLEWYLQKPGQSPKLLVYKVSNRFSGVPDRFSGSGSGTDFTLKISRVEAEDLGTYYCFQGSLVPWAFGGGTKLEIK
HJ8.5 (antibody), sequence (VH): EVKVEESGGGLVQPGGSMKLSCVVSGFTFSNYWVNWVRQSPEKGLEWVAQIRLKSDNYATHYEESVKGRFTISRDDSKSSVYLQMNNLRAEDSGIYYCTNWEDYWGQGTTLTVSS
HJ8.5 (antibody), sequence (VL): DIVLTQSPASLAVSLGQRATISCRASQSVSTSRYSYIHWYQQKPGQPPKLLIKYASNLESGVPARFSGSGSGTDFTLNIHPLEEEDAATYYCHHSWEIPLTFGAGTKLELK

Antibody C10-2 (humanized C10-2) was tested, and the share of the high affinity binding in the total binding [1] was less than 25%, the IC50 [2] was 630 nM and the IC50 [3] was 14 nM.
With PHF-13 (antibody) the IC50 [4] was 500 to 1000 nM.
HJ8.5 (antibody) gave a TG/wt (binding to P301L tau from Tg4510 mice over wild type) [5] of 51.
Work on IPN002 (antibody) yielded a TG/wt (binding to P301L tau from Tg4510 mice over wild type) [5] of 37.

From US20190330320A1
